Source: PMC8051872

Molecular target: wild-type full-length human ADAMTS13 (human) (UniProt Q76LX8)

percent enhancement by antibody 17G2 of catalytic efficiency (kcat/Km) of VWF96 proteolysis; intramolecular Spacer-CUB interaction within full-length ADAMTS13: 188%
B1: wild-type full-length human ADAMTS13 (enzyme)
chain: AAGGILHLELLVAVGPDVFQAHQEDTERYVLTNLNIGAELLRDPSLGAQFRVHLVKMVILTEPEGAPNITANLTSSLLSVCGWSQTINPEDDTDPGHADLVLYITRFDLELPDGNRQVRGVTQLGGACSPTWSCLITEDTGFDLGVTIAHEIGHSFGLEHDGAPGSGCGPSGHVMASDGAAPRAGLAWSPCSRRQLLSLLSAGRARCVWDPPRPQPGSAGHPPDAQPGLYYSANEQCRVAFGPKAVACTFAREHLDMCQALSCHTDPLDQSSCSRLLVPLLDGTECGVEKWCSKGRCRSLVELTPIAAVHGRWSSWGPRSPCSRSCGGGVVTRRRQCNNPRPAFGGRACVGADLQAEMCNTQACEKTQLEFMSQQCARTDGQPLRSSPGGASFYHWGAAVPHSQGDALCRHMCRAIGESFIMKRGDSFLDGTRCMPSGPREDGTLSLCVSGSCRTFGCDGRMDSQQVWDRCQVCGGDNSTCSPRKGSFTAGRAREYVTFLTVTPNLTSVYIANHRPLFTHLAVRIGGRYVVAGKMSISPNTTYPSLLEDGRVEYRVALTEDRLPRLEEIRIWGPLQEDADIQVYRRYGEEYGNLTRPDITFTYFQPKPRQAWVWAAVRGPCSVSCGAGLRWVNYSCLDQARKELVETVQCQGSQQPPAWPEACVLEPCPPYWAVGDFGPCSASCGGGLRERPVRCVEAQGSLLKTLPPARCRAGAQQPAVALETCNPQPCPARWEVSEPSSCTSAGGAGLALENETCVPGADGLEAPVTEGPGSVDEKLPAPEPCVGMSCPPGWGHLDATSAGEKAPSPWGSIRTGAQAAHVWTPAAGSCSVSCGRGLMELRFLCMDSALRVPVQEELCGLASKPGSRREVCQAVPCPARWQYKLAACSVSCGRGVVRRILYCARAHGEDDGEEILLDTQCQGLPRPEPQEACSLEPCPPRWKVMSLGPCSASCGLGTARRSVACVQLDQGQDVEVDEAACAALVRPEASVPCLIADCTYRWHVGTWMECSVSCGDGIQRRRDTCLGPQAQAPVPADFCQHLPKPVTVRGCWAGPCVGQGTPSLVPHEEAAAPGRTTATPAGASLEWSQARGLLFSPAPQPRRLLPGPQENSVQSSACGRQHLEPTGTIDMRGPGQADCAVAIGRPLGEVVTLRVLESSLNCSAGDMLLLWGRLTWRKMCRKLLDMTFSSKTNTLVVRQRCGRPGGGVLLRYGSQLAPETFYRECDMQLFGPWGEIVSPSLSPATSNAGGCRLFINVAPHARIAIHALATNMGAGTEGANASYILIRDTHSLRTTAFHGQQVLYWESESSQAEMEFSEGFLKAQASLRGQYWTLQSWVPEMQDPQSWKGKEGT
